Our source for the H1L1:H1L2 normalized median ratio, H2L2:H2L1 normalized median ratio and H1L1:H1L2 normalized median scalar value ln(r1/f1) values is patent publication US11306156.

Experiment [1] has as its target D3H44 Fab heavy chain L143E_K145T_S188L, C-terminal ABD2-His6 tag. The experiment can be described thus: LCCA: heavy chain co-expressed with two light chains, SPR detection of light chain tags; L1:L2 DNA 1:3, normalized to 1:1; competing light chain m11.
The target of experiment [2] is D3H44 Fab heavy chain Q179R, C-terminal ABD2-His6 tag. The experiment is described as above.
In experiment [3] the target is D3H44 Fab heavy chain S186K, C-terminal ABD2-His6 tag. The description is as above.
Experiment [4] has as its target D3H44 Fab heavy chain L143E_K145T_Q179E_S188L, C-terminal ABD2-His6 tag. The experiment can be described thus: LCCA: heavy chain co-expressed with two light chains, SPR detection of light chain tags; L1:L2 DNA 1:3, normalized to 1:1; competing light chain m20.
In experiment [5] the target is D3H44 Fab heavy chain S186R, C-terminal ABD2-His6 tag. Described as above.
The target of experiment [6] is D3H44 Fab heavy chain L143E_K145T_S188L, C-terminal ABD2-His6 tag. Nature of the experiment: LCCA: heavy chain co-expressed with two light chains, SPR detection of light chain tags; L1:L2 DNA 1:9, normalized to 1:1; competing light chain m11.
The target of experiment [7] is D3H44 Fab heavy chain S186K, C-terminal ABD2-His6 tag. The description is as above.
For experiment [8], the target named is D3H44 Fab heavy chain L143E_K145T. Nature of the experiment: LCCA, L1:L2 DNA 1:3 normalised to 1:1, SPR of light chain tags; competitor m34.
For experiment [9], the target named is D3H44 Fab heavy chain L143K_D146G. The experiment is described as above.
The target in experiment [10] is D3H44 Fab heavy chain L143E_K145T_S188L. Nature of the experiment: LCCA, L1:L2 DNA 1:3 normalised to 1:1, SPR of light chain tags; competitor m33.
The target in experiment [11] is D3H44 Fab heavy chain L143R. The experiment is described as above.
The target in experiment [12] is D3H44 Fab heavy chain L143E_K145T, C-terminal ABD2-His6 tag. Nature of the experiment: LCCA: heavy chain co-expressed with two light chains, SPR detection of light chain tags; L1:L2 DNA 1:3, normalized to 1:1; competing light chain m19.
The target of experiment [13] is D3H44 Fab heavy chain L143R, C-terminal ABD2-His6 tag. The experiment is described as above.
Experiment [14] addresses D3H44 Fab heavy chain L143E_K145T. Nature of the experiment: LCCA, L1:L2 DNA 1:3 normalised to 1:1, SPR of light chain tags; competitor m32.
The target of experiment [15] is D3H44 Fab heavy chain L143E_K145T_S188L. Nature of the experiment: LCCA, L1:L2 DNA 1:3 normalised to 1:1, SPR of light chain tags; competitor m37.
Experiment [16] addresses D3H44 Fab heavy chain L143E_K145T_S188L, C-terminal ABD2-His6 tag. The experiment can be described thus: LCCA: heavy chain co-expressed with two light chains, SPR detection of light chain tags; L1:L2 DNA 1:3, normalized to 1:1; competing light chain m12.
Experiment [17] deals with D3H44 Fab heavy chain Q179R, C-terminal ABD2-His6 tag. The description is as above.
Experiment [18] deals with D3H44 Fab heavy chain S186K, C-terminal ABD2-His6 tag. The description is as above.
In experiment [19] the target is D3H44 Fab heavy chain L143E_K145T, C-terminal ABD2-His6 tag. Nature of the experiment: LCCA: heavy chain co-expressed with two light chains, SPR detection of light chain tags; L1:L2 DNA 1:3, normalized to 1:1; competing light chain m13.
Experiment [20] concerns the target D3H44 Fab heavy chain L143E_K145T_S188L, C-terminal ABD2-His6 tag. Nature of the experiment: LCCA: heavy chain co-expressed with two light chains, SPR detection of light chain tags; L1:L2 DNA 1:3, normalized to 1:1; competing light chain m14.
Experiment [21] addresses D3H44 Fab heavy chain Q179K, C-terminal ABD2-His6 tag. The description is as above.
For experiment [22], the target named is D3H44 Fab heavy chain S186K, C-terminal ABD2-His6 tag. Described as above.
The target of experiment [23] is D3H44 Fab heavy chain L143E_K145T, C-terminal ABD2-His6 tag. The experiment can be described thus: LCCA: heavy chain co-expressed with two light chains, SPR detection of light chain tags; L1:L2 DNA 1:3, normalized to 1:1; competing light chain m15.
The target of experiment [24] is D3H44 Fab heavy chain Q179K, C-terminal ABD2-His6 tag. The description is as above.
Experiment [25] concerns the target D3H44 Fab heavy chain L143E_K145T_S188L, C-terminal ABD2-His6 tag. The experiment can be described thus: LCCA: heavy chain co-expressed with two light chains, SPR detection of light chain tags; L1:L2 DNA 1:3, normalized to 1:1; competing light chain m16.
In experiment [26] the target is D3H44 Fab heavy chain Q179K, C-terminal ABD2-His6 tag. Described as above.
In experiment [27] the target is D3H44 Fab heavy chain L143E_K145T_S188L, C-terminal ABD2-His6 tag. The experiment can be described thus: LCCA: heavy chain co-expressed with two light chains, SPR detection of light chain tags; L1:L2 DNA 1:3, normalized to 1:1; competing light chain m17.
In experiment [28] the target is D3H44 Fab heavy chain L143R, C-terminal ABD2-His6 tag. The experiment is described as above.
Experiment [29] deals with D3H44 Fab heavy chain L143E_K145T_S188L, C-terminal ABD2-His6 tag. The experiment can be described thus: LCCA: heavy chain co-expressed with two light chains, SPR detection of light chain tags; L1:L2 DNA 1:9, normalized to 1:1; competing light chain m12.
The target in experiment [30] is D3H44 Fab heavy chain S186K, C-terminal ABD2-His6 tag. Described as above.
Experiment [31] concerns the target D3H44 Fab heavy chain L143E_K145T, C-terminal ABD2-His6 tag. The experiment can be described thus: LCCA: heavy chain co-expressed with two light chains, SPR detection of light chain tags; L1:L2 DNA 1:9, normalized to 1:1; competing light chain m13.
For experiment [32], the target named is D3H44 Fab heavy chain S186K, C-terminal ABD2-His6 tag. Described as above.
The target in experiment [33] is D3H44 Fab heavy chain L143E_K145T_S188L, C-terminal ABD2-His6 tag. The experiment can be described thus: LCCA: heavy chain co-expressed with two light chains, SPR detection of light chain tags; L1:L2 DNA 1:9, normalized to 1:1; competing light chain m17.
The target of experiment [34] is D3H44 Fab heavy chain L143R, C-terminal ABD2-His6 tag. The description is as above.
Experiment [35] concerns the target D3H44 Fab heavy chain L143E_K145T_Q179E_S188L, C-terminal ABD2-His6 tag. The experiment can be described thus: LCCA: heavy chain co-expressed with two light chains, SPR detection of light chain tags; L1:L2 DNA 1:3, normalized to 1:1; competing light chain m12.
Experiment [36] deals with D3H44 Fab heavy chain S186R, C-terminal ABD2-His6 tag. The experiment is described as above.
The target in experiment [37] is D3H44 Fab heavy chain L143E_K145T. Nature of the experiment: LCCA, L1:L2 DNA 1:3 normalised to 1:1, SPR of light chain tags; competitor m31.
The target of experiment [38] is D3H44 Fab heavy chain Q179K. Described as above.
Experiment [39] addresses D3H44 Fab heavy chain Q179R. The experiment is described as above.
The target of experiment [40] is D3H44 Fab heavy chain S186R. The experiment is described as above.
In experiment [41] the target is D3H44 Fab heavy chain L143E_K145T. Nature of the experiment: LCCA, L1:L2 DNA 1:3 normalised to 1:1, SPR of light chain tags; competitor m33.
Experiment [42] deals with D3H44 Fab heavy chain S186R. The experiment is described as above.

Where “and” joins values, the source holds several entries; their conditions need not be identical. Equal values may be shown once.

For the substance “D3H44 light chain Q124E_S131T_T178Y_T180E, N-terminal HA or FLAG tag”, the figures for the H1L1:H1L2 normalized median ratio in experiment [1], in [4] and in experiment [6] were 26%, 17% and 16%, respectively. In addition, the H2L2:H2L1 normalized median ratio in experiment [2] is 95%; in experiment [3] it was 94%; in experiment [5] it was 88%; in experiment [7] it was 89%.

Regarding D3H44 light chain Q124E_V133D, in [8], the H1L1:H1L2 normalized median ratio worked out at 33%. For the same substance, the H2L2:H2L1 normalized median ratio in [9] was 91%.

For the substance D3H44 light chain Q124E_V133E, in experiment [10], the H1L1:H1L2 normalized median ratio worked out at 49%. Moreover, the H2L2:H2L1 normalized median ratio in [11] is 96%.

Turning to “D3H44 light chain Q124R, N-terminal HA or FLAG tag”, in experiment [12], the H1L1:H1L2 normalized median ratio is 85% and the H1L1:H1L2 normalized median scalar value ln(r1/f1) worked out at 1.77. Further, the H2L2:H2L1 normalized median ratio in experiment [13] came to 12%.

In the case of D3H44 light chain Q124R_Q160K_T178R, the H1L1:H1L2 normalized median scalar value ln(r1/f1) in experiment [14] was -0.14; in experiment [15], 0.03.

In the case of “D3H44 light chain Q124R_Q160K_T178R, N-terminal HA or FLAG tag”, the H1L1:H1L2 normalized median ratio worked out at 74% in experiment [16]; 82% in experiment [19]; 57% in [20]; 47% in experiment [23]; 59% in experiment [25]; 74% in [27]. Further, the values for the H1L1:H1L2 normalized median ratio in experiment [29], in experiment [31] and in experiment [33] were 84%, 81% and 86%, respectively. Further, the H1L1:H1L2 normalized median scalar value ln(r1/f1) in experiment [16] was 1.03; in [19], 1.77; in experiment [20], 0.28 and 0.23; in experiment [23], -0.14; in experiment [25], 0.37; in experiment [27] it was 1.04. In addition, the H1L1:H1L2 normalized median scalar value ln(r1/f1) in experiment [29] was 1.65; in experiment [31] it was 1.44; in experiment [33], 1.79. Also, the H2L2:H2L1 normalized median ratio was 5% in experiment [17]; 6% in [18]; 3% in experiment [21]; 3% in experiment [22]; 2% in [24]; 3% in experiment [26]. In addition, the H2L2:H2L1 normalized median ratio was 6% in experiment [28], 11% in [30], 10% in [32] and 21% in [34].

Take “D3H44 light chain Q124R_T178R, N-terminal HA or FLAG tag”: in experiment [35], the H1L1:H1L2 normalized median ratio was 83% and the H1L1:H1L2 normalized median scalar value ln(r1/f1) is 1.62. Further, in experiment [36], the H2L2:H2L1 normalized median ratio worked out at 12%.

As for D3H44 light chain S131E, the H1L1:H1L2 normalized median ratio in experiment [37] is 54%; in [41] it was 53%. Also, the H2L2:H2L1 normalized median ratio turned out to be 97% in experiment [38], 97% in [39], 95% in experiment [40] and 96% in experiment [42].
